The target of one test is AS25_(A57G). Description: ITC; Abl SH2 in the syringe (200 µM, or 300 µM for AS25 Y45A-A57G) titrated to the monobody in the cell (20 µM, or 30 µM); 50 mM Tris pH 7.0, 250 mM NaCl, 5% glycerol; 25 °C.
The target of another test is AS25_(Y45A-A57G). The test is described as above.
The next test addresses monobody AS25. The description is as above.
The next test concerns the target AS25 A57G monobody. Description: ITC; Abl SH2 in the syringe (200 µM; 300 µM for AS25 Y45A-A57G) titrated to the monobody in the cell (20 µM; 30 µM for AS25 Y45A-A57G); 25 °C; 50 mM Tris pH 7.0, 250 mM NaCl, 5% glycerol; two replicate experiments.
A further test deals with AS25 Y45A-A57G monobody. The description is as above.
AS25 Y45A-A57G monobody, sequence (main, as listed by the source Y45A A57G): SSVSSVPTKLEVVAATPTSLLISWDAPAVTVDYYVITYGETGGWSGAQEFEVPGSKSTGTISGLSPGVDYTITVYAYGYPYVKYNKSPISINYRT
The next test deals with AS25 monobody. The test is described as above.

From publication PMC11483992 come the findings set out here.

Where “and” joins values, the source holds several entries; their conditions need not be identical. Equal values may be shown once.

monobody AS25, sequence (main, as listed by the source): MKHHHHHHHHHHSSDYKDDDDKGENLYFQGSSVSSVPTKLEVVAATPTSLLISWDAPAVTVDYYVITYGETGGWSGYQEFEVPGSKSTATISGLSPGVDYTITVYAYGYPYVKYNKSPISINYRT
AS25_(A57G), sequence (main, as listed by the source A57G): as the sequence (main, as listed by the source) above, with A89G counted along it
AS25_(Y45A-A57G), sequence (main, as listed by the source Y45A A57G): as the sequence (main, as listed by the source) above, with Y77A, A89G counted along it

With “Abl1 SH2 domain (from UniProt P00519 112-232) (domain or fragment)”, the Kd came to 156 nM with AS25_(A57G); 2690 nM in the test with AS25_(Y45A-A57G); 180 nM with monobody AS25; 188 nM with AS25 A57G monobody; 3.17 µM in the test with AS25 Y45A-A57G monobody; 210 nM in the test with AS25 monobody. Further, the stoichiometry N with AS25_(A57G) is 1; with AS25_(Y45A-A57G), 1; with monobody AS25, 1; with AS25 A57G monobody, 0.864 and 0.817; in the test with AS25 Y45A-A57G monobody it was 0.792 and 0.788; in the test with AS25 monobody it was 0.861 and 0.869.
